Test results from US5849535A (Genentech, Inc., priority 1996, dated 1998).

Assays:
[1] = In vivo half-life of pegylated wild-type hGH in rats
IGF-I levels = test: Single-dose pharmacodynamics, IGF-I levels in Rhesus monkeys; format: in vivo; conditions: single dose 1 mg/kg intravenously or subcutaneously; seven-day study
Description: The placebo was 0.5 ml formulation buffer administered subcutaneously. IGF-1 levels were determined as in Example XIII.

hGHbp = target: T1, hGHbp (Homo sapiens, UniProt P10912); conditions: Lowman et al., J. Biol. Chem.; cited from earlier work
T1 construct: the extracellular domain of its receptor (hGHbp)
T1 sequence (P10912 19-256 limits assumed): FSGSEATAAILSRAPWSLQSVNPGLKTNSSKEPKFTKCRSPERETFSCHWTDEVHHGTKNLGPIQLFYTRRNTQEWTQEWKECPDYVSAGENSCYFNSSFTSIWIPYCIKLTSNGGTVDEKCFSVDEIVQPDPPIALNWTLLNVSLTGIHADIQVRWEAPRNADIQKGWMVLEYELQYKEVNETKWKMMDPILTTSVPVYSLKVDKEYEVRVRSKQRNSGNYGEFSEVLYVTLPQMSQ

With “wild-type hGH conjugate containing two PEG(5000) groups: pegylated wild-type hGH, approximately 33 kD” the “longer half-life than the non-pegylated protein” value [1] was about 4 fold.

For “conjugate containing five PEG(5000) groups: pegylated wild-type hGH, approximately 48 kD”, the “longer half-life than the non-pegylated protein” value [1] was about 11 fold.

In the case of “PEG-4/5-B2036: B2036 preparation containing primarily conjugates with four and five PEG(5000) groups”, the “IGF-I levels after single injection” value (IGF-I levels) is reported as “reduced at one day after administration, continued to decrease until four days after administration, and remained low throughout the seven-day study”.

In the case of “conjugate containing seven PEG groups: pegylated wild-type hGH, approximately 57 kD”, the “longer half-life than the non-pegylated protein” value [1] is reported as about 18 fold.

B1: human placental lactogen (protein, UniProt P0DML2 27-217, looked up)
Chorionic somatomammotropin …: VQTVPLSRLFDHAMLQAHRAHQLAIDTYQEFEETYIPKDQKYSFLHDSQTSFCFSDSIPTPSNMEETQQKSNLELLRISLLLIESWLEPVRFLRSMFANNLVYDTSDSDDYHLLKDLEEGIQTLMGRLEDGSRRTGQILKQTYSKFDTNSHNHDALLKNYGLLYCFRKDMDKVETFLRMVQCRSVEGSCGF
In the case of B1, the “binds weaker than hGH” value (hGHbp) is listed as ~ 2000 fold.
